The values below come from patent publication US20180371093A1 (Novartis, published 2018).

In experiment [1] the target is T1, Programmed Death 1 (PD-1) (UniProt Q15116 25-167, limits assumed). As to the kind of experiment: rank among the 16 humanized clones by FACS binding data. In general terms: Flow cytometry measures light scatter and fluorescence of single cells or particles in a stream.
Experiment [2] deals with T1, Programmed Death 1 (PD-1). The experiment in a line: rank in competition binding against labelled murine mAb BAP049, 1st experiment.
In experiment [3] the target is T1, Programmed Death 1 (PD-1). As to the kind of experiment: rank in competition binding against labelled murine mAb BAP049, 2nd experiment.

Some results are limits rather than exact numbers.

T1 sequence (Q15116 25-167 limits assumed): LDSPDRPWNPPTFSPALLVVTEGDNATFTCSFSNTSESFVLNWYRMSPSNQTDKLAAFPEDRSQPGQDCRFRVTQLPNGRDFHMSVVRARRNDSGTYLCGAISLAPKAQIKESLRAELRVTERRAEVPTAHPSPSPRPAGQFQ

B1: BAP049-hum16 (antibody, human IgG4 S228P, kappa, V domains shown)
VH: EVQLVQSGAEVKKPGESLRISCKGSGYTFTTYWMHWVRQAPGQGLEWMGNIYPGTGGSNFDEKFKNRFTISRDNSKNTLYLQMNSLRAEDTAVYYCTRWTTGTGAYWGQGTTVTVSS
VL: EIVLTQSPDFQSVTPKEKVTITCKSSQSLLDSGNQKNFLTWYQQKPGQAPRLLIYWASTRESGVPSRFSGSGSGTDFTFTISSLEAEDAATYYCQNDYSYPYTFGQGTKVEIKR
notes: also called clone 16
B1: the “Ranking FACS data” value in experiment [1] turned out to be 15 rank. Moreover, the “Competition Binding 1st exp. (rank)” value in experiment [2] is 16 rank. For the same molecule, in experiment [3], the “Competition Binding 2nd exp. (rank)” value was 15 rank.

B2: BAP049-hum03 (antibody, human IgG4 S228P, kappa, V domains shown)
VH: EVQLVQSGAEVKKPGESLRISCKGSGYTFTTYWMHWIRQSPSRGLEWLGNIYPGTGGSNFDEKFKNRFTISRDNSKNTLYLQMNSLRAEDTAVYYCTRWTTGTGAYWGQGTTVTVSS
VL: DIQMTQSPSSLSASVGDRVTITCKSSQSLLDSGNQKNFLTWYQQKPGQAPRLLIYWASTRESGIPPRFSGSGYGTDFTLTINNIESEDAAYYFCQNDYSYPYTFGQGTKVEIKR
notes: also called clone 3
As to B2, the “Ranking FACS data” value in experiment [1] came to 7 rank. The “Competition Binding 1st exp. (rank)” value in experiment [2] worked out at 8 rank. The “Competition Binding 2nd exp. (rank)” value in experiment [3] stood at 14 rank.

B3: BAP049-hum08 (antibody, human IgG4 S228P, kappa)
heavy: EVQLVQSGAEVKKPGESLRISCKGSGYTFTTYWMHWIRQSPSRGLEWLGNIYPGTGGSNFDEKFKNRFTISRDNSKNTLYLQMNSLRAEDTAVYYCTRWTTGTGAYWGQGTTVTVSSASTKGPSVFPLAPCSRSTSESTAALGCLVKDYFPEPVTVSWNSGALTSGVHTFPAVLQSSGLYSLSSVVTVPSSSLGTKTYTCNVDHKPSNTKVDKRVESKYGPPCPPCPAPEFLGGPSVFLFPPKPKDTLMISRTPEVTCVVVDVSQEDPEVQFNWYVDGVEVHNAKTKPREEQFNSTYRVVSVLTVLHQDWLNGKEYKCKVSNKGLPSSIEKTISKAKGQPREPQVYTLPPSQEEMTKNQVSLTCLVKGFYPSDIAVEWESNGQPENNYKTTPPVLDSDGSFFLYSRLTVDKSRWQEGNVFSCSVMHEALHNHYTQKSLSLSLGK
light: EIVLTQSPDFQSVTPKEKVTITCKSSQSLLDSGNQKNFLTWYQQKPGQAPRLLIYWASTRESGVPSRFSGSGSGTDFTFTISSLEAEDAATYYCQNDYSYPYTFGQGTKVEIKRTVAAPSVFIFPPSDEQLKSGTASVVCLLNNFYPREAKVQWKVDNALQSGNSQESVTEQDSKDSTYSLSSTLTLSKADYEKHKVYACEVTHQGLSSPVTKSFNRGEC
notes: Humanized mAb
As for B3, the “Ranking FACS data” value in experiment [1] was 7 rank. Moreover, the “Competition Binding 1st exp. (rank)” value in experiment [2] turned out to be 7 rank. Also, the “Competition Binding 2nd exp. (rank)” value in experiment [3] came to 4 rank.

B4: BAP049-hum04 (antibody, human IgG4 S228P, kappa, V domains shown)
VH: EVQLVQSGAEVKKPGESLRISCKGSGYTFTTYWMHWIRQSPSRGLEWLGNIYPGTGGSNFDEKFKNRFTISRDNSKNTLYLQMNSLRAEDTAVYYCTRWTTGTGAYWGQGTTVTVSS
VL: EIVLTQSPATLSLSPGERATLSCKSSQSLLDSGNQKNFLTWYQQKPGKAPKLLIYWASTRESGVPSRFSGSGSGTDFTFTISSLQPEDIATYYCQNDYSYPYTFGQGTKVEIKR
notes: also called clone 4
As to B4, the “Ranking FACS data” value in experiment [1] worked out at 14 rank. The “Competition Binding 1st exp. (rank)” value in experiment [2] stood at 15 rank. In addition, the “Competition Binding 2nd exp. (rank)” value in experiment [3] was determined as 15 rank.

B5: BAP049-hum14 (antibody, human IgG4 S228P, kappa)
heavy chain: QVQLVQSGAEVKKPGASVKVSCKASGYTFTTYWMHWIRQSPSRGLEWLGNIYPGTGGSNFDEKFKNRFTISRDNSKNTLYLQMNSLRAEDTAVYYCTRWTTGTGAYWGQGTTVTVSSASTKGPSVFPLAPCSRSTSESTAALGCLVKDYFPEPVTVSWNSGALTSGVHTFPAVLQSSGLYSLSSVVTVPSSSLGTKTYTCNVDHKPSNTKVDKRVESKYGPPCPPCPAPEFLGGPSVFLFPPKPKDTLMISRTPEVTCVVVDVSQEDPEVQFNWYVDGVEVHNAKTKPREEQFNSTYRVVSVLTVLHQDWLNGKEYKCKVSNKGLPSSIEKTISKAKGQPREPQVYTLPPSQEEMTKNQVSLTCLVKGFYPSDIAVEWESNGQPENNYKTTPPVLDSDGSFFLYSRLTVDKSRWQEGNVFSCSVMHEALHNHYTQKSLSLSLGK
light chain: EIVLTQSPATLSLSPGERATLSCKSSQSLLDSGNQKNFLTWYQQKPGQAPRLLIYWASTRESGVPSRFSGSGSGTDFTFTISSLEAEDAATYYCQNDYSYPYTFGQGTKVEIKRTVAAPSVFIFPPSDEQLKSGTASVVCLLNNFYPREAKVQWKVDNALQSGNSQESVTEQDSKDSTYSLSSTLTLSKADYEKHKVYACEVTHQGLSSPVTKSFNRGEC
notes: also called clone 14
For B5, the “Ranking FACS data” value in experiment [1] came out at 16 rank. In addition, the “Competition Binding 1st exp. (rank)” value in experiment [2] came to 7 rank. In addition, the “Competition Binding 2nd exp. (rank)” value in experiment [3] was determined as 15 rank.

B6: BAP049-hum02 (antibody, human IgG4 S228P, kappa, V domains shown)
VH: EVQLVQSGAEVKKPGESLRISCKGSGYTFTTYWMHWVRQATGQGLEWMGNIYPGTGGSNFDEKFKNRVTITADKSTSTAYMELSSLRSEDTAVYYCTRWTTGTGAYWGQGTTVTVSS
VL: DIQMTQSPSSLSASVGDRVTITCKSSQSLLDSGNQKNFLTWYQQKPGQAPRLLIYWASTRESGIPPRFSGSGYGTDFTLTINNIESEDAAYYFCQNDYSYPYTFGQGTKVEIKR
notes: also called clone 2
For the molecule B6, the “Ranking FACS data” value in experiment [1] came to 6 rank. For the same molecule, the “Competition Binding 1st exp. (rank)” value in experiment [2] came out at 3 rank. The “Competition Binding 2nd exp. (rank)” value in experiment [3] was found to be 2 rank.

B7: BAP049-hum12 (antibody, human IgG4 S228P, kappa, V domains shown)
VH: EVQLVQSGAEVKKPGESLRISCKGSGYTFTTYWMHWVRQATGQGLEWMGNIYPGTGGSNFDEKFKNRVTITADKSTSTAYMELSSLRSEDTAVYYCTRWTTGTGAYWGQGTTVTVSS
VL: DIQMTQSPSSLSASVGDRVTITCKSSQSLLDSGNQKNFLTWYLQKPGQSPQLLIYWASTRESGVPSRFSGSGSGTDFTFTISSLEAEDAATYYCQNDYSYPYTFGQGTKVEIKR
notes: also called clone 12
Take B7: the “Ranking FACS data” value in experiment [1] came to 3 rank. In experiment [2], the “Competition Binding 1st exp. (rank)” value was determined as 8 rank. In addition, in experiment [3], the “Competition Binding 2nd exp. (rank)” value was 16 rank.

B8: BAP049-hum13 (antibody, human IgG4 S228P, kappa)
heavy chain: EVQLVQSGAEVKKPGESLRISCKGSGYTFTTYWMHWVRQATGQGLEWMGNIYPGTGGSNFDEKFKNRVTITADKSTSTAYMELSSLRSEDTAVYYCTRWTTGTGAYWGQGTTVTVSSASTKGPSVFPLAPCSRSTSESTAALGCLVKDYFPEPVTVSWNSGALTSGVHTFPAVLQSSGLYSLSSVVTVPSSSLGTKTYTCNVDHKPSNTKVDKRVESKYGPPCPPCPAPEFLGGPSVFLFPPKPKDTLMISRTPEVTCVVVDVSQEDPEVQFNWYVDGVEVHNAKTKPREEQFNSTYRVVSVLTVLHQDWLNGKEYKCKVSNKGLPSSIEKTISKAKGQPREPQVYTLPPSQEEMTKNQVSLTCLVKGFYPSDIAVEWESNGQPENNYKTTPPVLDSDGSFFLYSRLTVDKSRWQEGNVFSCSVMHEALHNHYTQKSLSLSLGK
light chain: DVVMTQSPLSLPVTLGQPASISCKSSQSLLDSGNQKNFLTWYQQKPGKAPKLLIYWASTRESGVPSRFSGSGSGTDFTFTISSLEAEDAATYYCQNDYSYPYTFGQGTKVEIKRTVAAPSVFIFPPSDEQLKSGTASVVCLLNNFYPREAKVQWKVDNALQSGNSQESVTEQDSKDSTYSLSSTLTLSKADYEKHKVYACEVTHQGLSSPVTKSFNRGEC
notes: also called clone 13
Consider B8, for which the “Ranking FACS data” value in experiment [1] is 6 rank. In addition, the “Competition Binding 1st exp. (rank)” value in experiment [2] was 1 rank. Besides, the “Competition Binding 2nd exp. (rank)” value in experiment [3] was 1 rank.

B9: BAP049-hum15 (antibody, human IgG4 S228P, kappa)
heavy chain: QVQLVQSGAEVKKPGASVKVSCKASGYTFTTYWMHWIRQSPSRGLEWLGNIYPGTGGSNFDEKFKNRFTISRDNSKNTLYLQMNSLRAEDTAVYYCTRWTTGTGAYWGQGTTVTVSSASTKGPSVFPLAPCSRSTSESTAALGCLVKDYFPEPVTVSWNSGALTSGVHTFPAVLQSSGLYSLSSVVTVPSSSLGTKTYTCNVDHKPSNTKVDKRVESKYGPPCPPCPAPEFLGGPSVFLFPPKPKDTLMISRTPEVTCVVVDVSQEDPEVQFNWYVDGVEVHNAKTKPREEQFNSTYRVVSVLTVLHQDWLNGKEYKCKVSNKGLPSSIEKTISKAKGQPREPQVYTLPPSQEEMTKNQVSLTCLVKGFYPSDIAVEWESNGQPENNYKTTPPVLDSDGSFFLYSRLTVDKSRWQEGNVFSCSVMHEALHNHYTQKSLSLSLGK
light chain: EIVLTQSPDFQSVTPKEKVTITCKSSQSLLDSGNQKNFLTWYQQKPGQAPRLLIYWASTRESGVPSRFSGSGSGTDFTFTISSLEAEDAATYYCQNDYSYPYTFGQGTKVEIKRTVAAPSVFIFPPSDEQLKSGTASVVCLLNNFYPREAKVQWKVDNALQSGNSQESVTEQDSKDSTYSLSSTLTLSKADYEKHKVYACEVTHQGLSSPVTKSFNRGEC
notes: also called clone 15
Take B9: the “Ranking FACS data” value in experiment [1] was determined as 6 rank. Moreover, in experiment [2], the “Competition Binding 1st exp. (rank)” value turned out to be 7 rank. Further, the “Competition Binding 2nd exp. (rank)” value in experiment [3] stood at 15 rank.

B10: BAP049-hum11 (antibody, human IgG4 S228P, kappa)
heavy: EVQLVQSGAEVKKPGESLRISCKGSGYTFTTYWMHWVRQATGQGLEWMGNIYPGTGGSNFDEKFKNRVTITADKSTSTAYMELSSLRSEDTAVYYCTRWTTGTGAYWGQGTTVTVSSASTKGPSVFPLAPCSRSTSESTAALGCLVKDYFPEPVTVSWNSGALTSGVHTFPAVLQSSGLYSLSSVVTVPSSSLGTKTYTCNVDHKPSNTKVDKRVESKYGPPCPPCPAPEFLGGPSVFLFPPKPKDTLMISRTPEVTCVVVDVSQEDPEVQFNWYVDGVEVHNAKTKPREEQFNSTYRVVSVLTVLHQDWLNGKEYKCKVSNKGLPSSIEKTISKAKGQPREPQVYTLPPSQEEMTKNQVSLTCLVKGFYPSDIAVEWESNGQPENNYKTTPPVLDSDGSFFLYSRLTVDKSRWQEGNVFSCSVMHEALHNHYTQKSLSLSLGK
light: EIVLTQSPATLSLSPGERATLSCKSSQSLLDSGNQKNFLTWYQQKPGQAPRLLIYWASTRESGVPSRFSGSGSGTDFTFTISSLEAEDAATYYCQNDYSYPYTFGQGTKVEIKRTVAAPSVFIFPPSDEQLKSGTASVVCLLNNFYPREAKVQWKVDNALQSGNSQESVTEQDSKDSTYSLSSTLTLSKADYEKHKVYACEVTHQGLSSPVTKSFNRGEC
notes: Humanized mAb
On to B10, for which the “Ranking FACS data” value in experiment [1] is 6 rank. In addition, in experiment [2], the “Competition Binding 1st exp. (rank)” value came out at 4 rank. Moreover, in experiment [3], the “Competition Binding 2nd exp. (rank)” value was greater than 4 rank.

B11: BAP049-hum06 (antibody, human IgG4 S228P, kappa)
heavy chain: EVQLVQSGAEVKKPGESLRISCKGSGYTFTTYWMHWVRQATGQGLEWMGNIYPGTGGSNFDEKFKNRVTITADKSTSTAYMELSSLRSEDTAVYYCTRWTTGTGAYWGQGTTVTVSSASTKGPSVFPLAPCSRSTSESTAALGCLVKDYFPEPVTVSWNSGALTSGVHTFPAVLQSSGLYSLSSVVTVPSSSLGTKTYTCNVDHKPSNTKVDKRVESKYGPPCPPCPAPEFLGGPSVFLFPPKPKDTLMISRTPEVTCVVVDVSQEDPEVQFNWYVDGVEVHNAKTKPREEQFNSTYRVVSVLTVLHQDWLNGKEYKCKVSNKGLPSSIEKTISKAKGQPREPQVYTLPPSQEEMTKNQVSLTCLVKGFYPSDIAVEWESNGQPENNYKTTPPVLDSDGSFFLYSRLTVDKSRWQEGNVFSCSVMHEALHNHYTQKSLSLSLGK
light chain: DIVMTQTPLSLPVTPGEPASISCKSSQSLLDSGNQKNFLTWYQQKPGQAPRLLIYWASTRESGVPSRFSGSGSGTDFTFTISSLEAEDAATYYCQNDYSYPYTFGQGTKVEIKRTVAAPSVFIFPPSDEQLKSGTASVVCLLNNFYPREAKVQWKVDNALQSGNSQESVTEQDSKDSTYSLSSTLTLSKADYEKHKVYACEVTHQGLSSPVTKSFNRGEC
notes: also called clone 6
As to B11, the “Ranking FACS data” value in experiment [1] was 1 rank. Besides, the “Competition Binding 1st exp. (rank)” value in experiment [2] turned out to be 7 rank. Further, the “Competition Binding 2nd exp. (rank)” value in experiment [3] is 3 rank.

B12: BAP049-hum07 (antibody, human IgG4 S228P, kappa)
heavy chain: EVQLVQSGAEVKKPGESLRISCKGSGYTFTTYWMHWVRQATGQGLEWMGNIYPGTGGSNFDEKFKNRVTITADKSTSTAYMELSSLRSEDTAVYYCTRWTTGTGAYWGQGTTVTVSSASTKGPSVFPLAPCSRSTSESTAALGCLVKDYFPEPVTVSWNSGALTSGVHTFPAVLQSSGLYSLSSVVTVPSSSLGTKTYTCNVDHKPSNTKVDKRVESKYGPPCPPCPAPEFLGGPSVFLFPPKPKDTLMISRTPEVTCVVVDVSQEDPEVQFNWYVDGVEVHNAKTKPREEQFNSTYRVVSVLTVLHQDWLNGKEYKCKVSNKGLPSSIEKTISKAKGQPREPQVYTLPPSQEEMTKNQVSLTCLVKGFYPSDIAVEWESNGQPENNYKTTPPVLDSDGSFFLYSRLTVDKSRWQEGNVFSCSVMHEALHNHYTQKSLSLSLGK
light chain: EIVLTQSPATLSLSPGERATLSCKSSQSLLDSGNQKNFLTWYQQKPGKAPKLLIYWASTRESGVPSRFSGSGSGTDFTFTISSLEAEDAATYYCQNDYSYPYTFGQGTKVEIKRTVAAPSVFIFPPSDEQLKSGTASVVCLLNNFYPREAKVQWKVDNALQSGNSQESVTEQDSKDSTYSLSSTLTLSKADYEKHKVYACEVTHQGLSSPVTKSFNRGEC
notes: also called clone 7
B12: the “Ranking FACS data” value in experiment [1] is 4 rank. The “Competition Binding 1st exp. (rank)” value in experiment [2] is 7 rank. Besides, the “Competition Binding 2nd exp. (rank)” value in experiment [3] was greater than 4 rank.

B13: BAP049-hum09 (antibody, human IgG4 S228P, kappa)
heavy: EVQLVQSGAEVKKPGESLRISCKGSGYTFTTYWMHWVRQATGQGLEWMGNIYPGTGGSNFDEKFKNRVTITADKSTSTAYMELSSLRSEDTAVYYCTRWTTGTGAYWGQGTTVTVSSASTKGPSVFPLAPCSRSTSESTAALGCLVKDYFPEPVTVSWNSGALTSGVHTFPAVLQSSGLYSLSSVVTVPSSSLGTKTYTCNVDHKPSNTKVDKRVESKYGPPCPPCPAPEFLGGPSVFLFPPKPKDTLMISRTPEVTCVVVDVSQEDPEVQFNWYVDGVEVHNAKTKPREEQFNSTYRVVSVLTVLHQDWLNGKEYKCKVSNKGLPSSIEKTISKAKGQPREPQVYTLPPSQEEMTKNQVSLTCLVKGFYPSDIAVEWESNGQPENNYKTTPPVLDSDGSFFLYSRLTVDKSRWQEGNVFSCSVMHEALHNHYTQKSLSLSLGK
light: EIVLTQSPDFQSVTPKEKVTITCKSSQSLLDSGNQKNFLTWYQQKPGQAPRLLIYWASTRESGVPSRFSGSGSGTDFTFTISSLEAEDAATYYCQNDYSYPYTFGQGTKVEIKRTVAAPSVFIFPPSDEQLKSGTASVVCLLNNFYPREAKVQWKVDNALQSGNSQESVTEQDSKDSTYSLSSTLTLSKADYEKHKVYACEVTHQGLSSPVTKSFNRGEC
notes: Humanized mAb
Take B13: the “Ranking FACS data” value in experiment [1] is 7 rank. In addition, the “Competition Binding 1st exp. (rank)” value in experiment [2] stood at 2 rank. Moreover, in experiment [3], the “Competition Binding 2nd exp. (rank)” value was 4 rank.
